As a reminder, the Km is the concentration of substrate that gives half-maximal velocity. By kcat is commonly meant the maximal rate divided by the concentration of active sites. What is called kcat/Km is the second-order rate constant that governs catalysis at low substrate concentration.

Where two headings read alike, the source gives them in different places.

Data set [1] relates to AMDase from Mesorhizobium sp. BNC1. Nature of the data set: BTB activity assay, alkenyl-substituted substrates of formula I. The format is biochemical. As to conditions: 30° C. The procedure:
(§1) This method involves measuring spectrophotometrically at 620 nm the change of yellow colour to green/blue of pH indicator—BTB with increasing concentration of [OH^−] formed during the decarboxylation reaction. […] More concentrated buffer (10 mM) gives better results with higher concentration of enzyme or quicker reactions since changes of colour are slower due to higher buffer capacity.
(§2) All kinetics assays were performed on an Anthos Zenyth 3100 96-well microplate reader. 10 μl of 20-500 mM phenylmalonate or methyl-phenylmalonate solution (pH adjusted to 7.2) was added to 180 μl of 5-10 mM MOPS buffer pH 7.2 containing 0.0186 mM bromothymol blue. The reaction was initiated by addition of 10 μl of decarboxylase solution (0.002-0.02 mM, final concentration). The sensitivity of the reaction depends on the concentration of buffer, lower concentrations give higher sensitivity. The values of KM and kcat were calculated from spectophotometrical measurements at 620 nm of the resulting blue solution using Lineweaver-Burk plot and the following equations: […]
A BTB activity assay was performed as described above. Compounds of formula I, wherein R^2 is methyl and R^1 is phenyl, ethenyl, propen-1-yl, buten-1-yl or 2-methylpropen-1-yl were tested as substrates.

For another data set, the system named is C/C=C/C(C)(C(=O)O)C(=O)O. As to the kind of experiment: purified protein, by the assay type. As to conditions: other: 30° C., BTB assay, pH 7.2.
A further data set deals with C=CC(C)(C(=O)O)C(=O)O. Nature of the data set: purified protein, by the assay type. The conditions noted are these: other: 30° C., BTB assay, pH 7.2.
Data set [2] relates to CC(C)=CC(C)(C(=O)O)C(=O)O. As to the kind of experiment: purified protein, by the assay type. The conditions noted are these: other: 30° C., BTB assay, pH 7.2.
Method: (§3) All kinetics assays were performed on an Anthos Zenyth 3100 96-well microplate reader. […] The reaction was initiated by addition of 10 μl of decarboxylase solution (0.002-0.02 mM, final concentration). The sensitivity of the reaction depends on the concentration of buffer, lower concentrations give higher sensitivity. The values of KM and kcat were calculated from spectophotometrical measurements at 620 nm of the resulting blue solution using Lineweaver-Burk plot and the following equations:
The test system of data set [3] is CC/C=C/C(C)(C(=O)O)C(=O)O. Nature of the data set: purified protein, by the assay type. The conditions noted are these: other: 30° C., BTB assay, pH 7.2.
Method: as §3
Data set [4] is described as follows: BTB spectrophotometric assay of kinetic constants, substrate phenylmalonate. As to conditions: for Km / kcat: substrate 2-phenylmalonic acid (1), His6-tagged enzyme, BTB method; for decarboxylase activity in words: substrate phenylmalonate 1, purified enzymes. In kind it is biochemical. The procedure:
as §1, §2

For data set [5] the following is noted: substrate 2-methyl-2-phenylmalonic acid (2); literature data (footnote a, ref 6); cited from earlier work.
A short description of data set [6]: BTB spectrophotometric assay of kinetic constants, substrate 2-methyl-2-phenylmalonate. In kind it is biochemical. As to conditions: for Km / kcat / reaction with 2-methyl-2-phenylmalonic acid (2) (cell spans Km, kcat, kcat/Km): substrate 2-methyl-2-phenylmalonic acid (2), BTB method; for Km / kcat: His6-tagged enzyme. The procedure:
as §1, §2

A short description of data set [7]: In vitro decarboxylation of 2-methyl-2-phenylmalonate to 2-phenylpropanoic acid. As to conditions: for absolute configuration of the product: 2-phenylpropionate product. In kind it is biochemical. The procedure:
[formula] [formula] [formula] h) In Vitro Decarboxylation of 2-methyl-2-phenylmalonate to 2-phenylpropanoic Acid by AMDase from Bordetella bronchiseptica and Asp/Glu Racemase from Mesorhizobium sp. BNC1.
To 400 μl of 0.1 M TRIS buffer pH 8, 100 μl of 0.5 M water solution (after adjusting pH to 8) of 2-methyl-2-phenylmalonic acid was added. Then 20 μl of an AMDase solution (10 mg/mL) was added and the reaction was stirred at 30° C. for 8 h. Products were extracted with diethyl ether after acidifying with 1 M HCl and methylated with TMS-diazomethane. The reaction was analyzed by GC (conversion up to 95%) and 2-phenylpropanoic acid formation confirmed by GC-MS, ^1H NMR. Both enzyme products (after methylation) had the same configuration (the same peak on GC with chiral column, ee>99%). Thus according to the literature^7 absolute configuration of the product was R.

For data set [8] the following is noted: substrate 2-phenylmalonic acid (1); literature data (footnote a, ref 6); cited from earlier work.
Data set [9] is described as follows: In vivo plate assay for AMDase activity (BTB), substrate phenylmalonate. In kind it is cell-based. The conditions noted are these: E. coli expressing the enzyme. The procedure:
Test Petri dishes were prepared using following medium: 1% tryptone, 0.5% yeast extract, 1% sodium chloride, 1% agar, 0.025% bromothymol blue (BTB). Then pH was adjusted to 6.5 and the medium autoclaved. When medium temperature reached 50-60° C. isopropyl-β-D-thiogalactopyranoside (1 mM, final concentration), kanamycin ([…], final concentration) and phenylmalonic acid (0.36%, final concentration) were added. 100 μl of liquid bacterial culture containing AMDase was plated on test Petri dishes. After 2-3 days of incubation at 37° C. the colonies and surrounding area changed colour to green-blue indicating AMDase activity.

Method for C=CC(C)(C(=O)O)C(=O)O: as §3

`C=CC(C)(C(=O)O)C(=O)O` [compound 3, 2-methyl-2-vinylmalonic acid]: in [1], the Km amounted to 19.4 mM and the kcat was determined as 8.9 s⁻¹.

As for “AMDase from Bordetella bronchiseptica KU1201 (Bordetella bronchiseptica)”, the Km in the data set on C/C=C/C(C)(C(=O)O)C(=O)O is on record as 12.8 mM; in the data set on C=CC(C)(C(=O)O)C(=O)O, 7.8 mM; in data set [2] it was 3.5 mM; in [3], 14.4 mM. Also, the kcat is 46.2 s⁻¹ in the data set with C/C=C/C(C)(C(=O)O)C(=O)O, 42.8 s⁻¹ in the data set on C=CC(C)(C(=O)O)C(=O)O, 5.2 s⁻¹ in data set [2] and 23.9 s⁻¹ in data set [3]. The kcat/Km with C/C=C/C(C)(C(=O)O)C(=O)O amounted to 3600 M⁻¹ s⁻¹; in the data set on C=CC(C)(C(=O)O)C(=O)O, 5500 M⁻¹ s⁻¹; in data set [2] it was 1500 M⁻¹ s⁻¹; in data set [3], 1600 M⁻¹ s⁻¹.

B1: AMDase from Bordetella bronchiseptica: arylmalonate decarboxylase from Bordetella bronchiseptica, SEQ ID NO: 2, Blast entry BAA02419.1 (protein, listed as Bordetella bronchiseptica)
chain: MQQASTPTIGMIVPPAAGLVPADGARLYPDLPFIASGLGLGSVTPEGYDAVIESVVDHARRLQKQGAAVVSLMGTSLSFYRGAAFNAALTVAMREATGLPCTTMSTAVLNGLRALGVRRVALATAYIDDVNERLAAFLAEESLVPTGCRSLGITGVEAMARVDTATLVDLCVRAFEAAPDSDGILLSCGGLLTLDAIPEVERRLGVPVVSSSPAGFWDAVRLAGGGAKARPGYGRLFDESLEHHHHHH
On to B1, for which the Km in data set [4] is 10.7 mM; in [5] it was 25.5 mM; in data set [6] it was 26.9 mM; in [8], 13.9 mM. Moreover, the kcat is 316.1 s⁻¹ in [4], “(29.8)^a s^−1” in data set [5], 278.9 s⁻¹ in data set [6] and “(353)^a ^ s^−1” in data set [8]. The “absolute configuration of the product” value in data set [7] is listed as “R-configuration”. For the same molecule, the “colour change of BTB indicator (decarboxylase activity)” value (from here on “colour change of BTB indicator”) in data set [9] is on record as “clear change in colour from yellow to blue”.

B2: protein BAA30082.1 from Pyrococcus horikoshii OT3: Hypothetical arylmalonate decarboxylase [Pyrococcus horikoshii OT3], SEQ ID NO: 6 (protein, listed as Pyrococcus horikoshii)
chain: MYGWRRRIGLIVPSSNTTMEPEFWKMAPEGVSIHTARMRLREVTEESLLEMERHAKDAALELADAEVDVIVYGCTSGSLIKGKGYDKEIAKNLEEASGIKTITTSTAVLNALNTLDIQKVVVATPYIDSVNEREKEFLEANGIEVLRIKGLGIVKNTEIGRQEPWVAYKLALEVYTPEADGLFISCTNFRTIEIIDKLEVELGVPVVTSNQATMWYALKTMKVKEKYDMYGTLLKEKLLEHHHHHH
For B2, in [4], the Km turned out to be 41.7 mM, the kcat is 0.09 s⁻¹ and the “decarboxylase activity in words” value is recorded as “very low levels of activity”. Besides, in data set [6], the “reaction with 2-methyl-2-phenylmalonic acid (2) (cell spans Km, kcat, kcat/Km)” value (“reaction” for short) is listed as “No reaction”. Besides, in [9], the “colour change of BTB indicator” value was “only slow development of colour”.

B3: protein NP_888076.1 from Bordetella bronchiseptica RB50: Putative decarboxylase [Bordetella bronchiseptica RB50], SEQ ID NO: 8 (protein, listed as Bordetella bronchiseptica)
chain: MPTPTQMKTTARYRPYAWRAKVGLIVPSTNTINEPEFYRLAPDGVTIHTGRAINAGPATQENYDRMARGVLEAADLIKTAEVDVVAYGCTSGSIVCSLDELCDGMSERVGVPAIATAGAVVAALRALGVRRVAVGTPYIDFVNQREREFLEQYGFEVVSIEGMDLGHTQEERRDIGRVPPQSTFQLARDIDRPQAEAIFLSCTNLATLDMIERIENELGKPVVTSNQATFWACLRLLGLSCAIPGYGRLLTDCLAPITRASYALALEHHHHHH
Turning to B3, in data set [4], the Km came out at 10 mM, the kcat is 12.4 s⁻¹ and the “decarboxylase activity in words” value is “moderate activity”. In data set [6], the “reaction” value was “No reaction”.

B4: protein EAN08019.1 from Mesorhizobium sp. BNC1: Asp/Glu racemase [Mesorhizobium sp. BNC1], SEQ ID NO: 4, shown to have AMDase activity (protein, listed as Mesorhizobium sp.)
chain: MSAEDPVIGLIVPPAAGLVPPEAVAMYPEVTFHASGLGLKEMTPCGYAGVIDLVGDHAERHAQAGAQAVALMGTSLSFFRGAAFNAELITHMSNRSGLPATTMSQAVVDELKSHGARRIAVVTAYRQDVNNLLAAFLNEHGIEARSLKSLGITSVADVAGTPAKRLLQLCKEAVHDAGPVDAVLISCGGLHTLDVIVDVEISTGLPVVTSATAGVRGAVGLLKRSAETAEHATSKFLTGRALEHHHHHH
For the molecule B4, in data set [4], the Km stood at 9.6 mM, the kcat came out at 118 s⁻¹ and the “decarboxylase activity in words” value is “very efficient decarboxylase activity”. In data set [6] (substrate 2-methyl-2-phenylmalonate 2, purified enzymes), the “decarboxylase activity in words” value was “very efficient decarboxylase activity”. In data set [6], the Km came to 22.2 mM and the kcat worked out at 55.8 s⁻¹. The “absolute configuration of the product” value in [7] is recorded as “R-configuration”. The “ee of 2-phenylpropanoic acid product” value in data set [7] (GC with chiral column after methylation) is above 99%.

B5: protein ZP_00801202.1 from Alkaliphilus metalliredigenes QYMF: Asp/Glu racemase [Alkaliphilus metalliredigenes QYMF], SEQ ID NO: 10 (protein)
chain: MSDFSYGGRAKIGLIYPAPGWVMEPEFYLMAPWGVSTYTTRISLKHVNVAELRKLGDQSVEAAELLAQAPLDVIALGCTSGSFVNGSRYDQELIEKMEGVSGGIPCTTTSTAVVAALKALHVTKIAVATPYIDEVNLKAKNFLEAEGLDVVNIKGLGLLQDIEIDRQDMETVYRLAKEVDHVEAQAIVILCTGLRSVPIIEALENDLGKPVISAIQATFWHCLRLSGVRENVEGYGSLLRIEGLLEHHHHHH
modifications: Alkaliphilus metalliredigenes
As to B5, in data set [4], the kcat is 0.26 s⁻¹ and the “decarboxylase activity in words” value is recorded as “very low levels of activity”. In addition, the “reaction” value in data set [6] is listed as “No reaction”. Further, the “colour change of BTB indicator” value in data set [9] is “only slow development of colour”.

Values taken from US8951750B2 (BASF SE, priority 2007, dated 2015).
